{"source": "paper PMC5349596", "target": "Asp74 (UniProt position 74, WARYIDWVITT)", "test": "UV-vis", "conditions": "room temperature (approx. 25 °C); not stated (no added salt; low-millimolar buffer mixture; pH adjusted with concentrated H2SO4); 0.89 mM citric acid, 0.89 mM MES, 1.1 mM TES, 0.78 mM TAPS, 1.1 mM CHES and 0.33 mM CAPS; Folded, retinal-bound (nearly 100% all-trans), detergent-solubilised; dark or light adaptation during the titration not stated"}
{"substance": "Rubrobacter xylanophilus rhodopsin (RxR) (Rubrobacter xylanophilus DSM 9941)", "values": [{"measurement": "pKa", "value": "1.3 ± 0.17"}]}
